The results in this text go back to paper PMC8311663 (Molecular cell, 2021).

For data set [1], the target named is RNAP core (Mtb);sigmaA;CarD;RbpA;WhiB7 (Mycobacterium …, UniProt P9WGZ1;P9WGY9;P9WGY7;P9WGY5;P9WGI1;P9WJG3;P9WHJ5;Q6MX01 …, L7M||||). The experiment in a line: cryo-EM.
For data set [2], the target named is RNAP core (Mtb);sigmaA;CarD;RbpA (Mycobacterium …, UniProt P9WGZ1;P9WGY9;P9WGY7;P9WGY5;P9WGI1;P9WJG3;P9WHJ5 …, L7M|||). The data set is described as follows: cryo-EM.

B1: whiB7 promoter (-70 to +30) (dsDNA)
DNA 1: CTGTACCGGCAAACGCGCAGGTCAGAAAATCGGTTGTGGTCAGCTGCTGCCACCGGTTAACCTCCAGGTCGCATTCTGCTGCCAGCCTGGAGATGGCATT
DNA 2: AATGCCATCTCCAGGCTGGCAGCAGAATGCGACCTGGAGGTTAACCGGTGGCAGCAGCTGACCACAACCGATTTTCTGACCTGCGCGTTTGCCGGTACAG
Regarding B1, the binding result in data set [1] and in data set [2] was “binds” in each case.
